Results published in US20210380703A1 (RIGEL PHARMACEUTICALS, published 2021).

Assays:
human ACVR2A = target: T1, human ACVR2A (human, UniProt P27037 20-135, limits assumed); assay: ELISA
T1 construct: also called activin receptor, type II A
In short: (§1)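 Monoclonal antibodies were first applied to human or mouse ACVR2A, alongside biotinylated goat anti-human kappa light chain (positive control) and human Fc (negative control); binding was then determined by ELISA.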

mouse ACVR2A = mouse ACVR2A (mouse, UniProt P27038 20-135, limits assumed); assay: ELISA
Sequence of mouse ACVR2A (P27038 20-135 limits assumed): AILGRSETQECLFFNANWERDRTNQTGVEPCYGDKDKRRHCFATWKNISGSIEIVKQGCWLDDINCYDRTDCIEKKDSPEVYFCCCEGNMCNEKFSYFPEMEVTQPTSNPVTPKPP
In short: as §1

[1] = target: T2, biotinylated goat anti-human kappa light chain; assay: ELISA, positive control
T2 construct: positive control of the ELISA
In short: as §1
Further: test concentration or dose not given here.

T1 sequence (P27037 20-135 limits assumed): as the sequence (P27038 20-135 limits assumed) above, with R20K, I73V counted along it

optical density (human ACVR2A)	optical density (mouse ACVR2A)	optical density [1]	Binder
2.25 OD	2.6 OD	3.52 OD	368_F10 (antibody, V domains shown, Group I) VH: EVQLLESGGGLVQPGGSLRLSCAASGFTFSSYGMNWVRQAPGKGLEWVAGINYNSGYTSYADSVKGRFTISRDNSKNTLYLQMNSLRAEDTAVYYCARAANWHDTHLDYWGQGTLVTVSS VL: DIQMTQSPSSLSASVGDRVTITCRASQSIVSYVNWYQQKPGKAPKLLIYAATSRASGVPSRFSGSGSGTDFTLTISSLQPEDFATYYCQQSYDTPLTFGGGTKVEIK
2.1 OD	2.37 OD	3.5 OD	368_G11 (antibody, V domains shown, Group II) VH: EVQLLESGGGLVQPGGSLRLSCAASGFTFDSYGMHWVRQAPGKGLEWVSGINYNSGYKSYADSVKGRFTISRDNSKNTLYLQMNSLRAEDTAVYYCARAATWHDTALDYWGQGTLVTVSS VL: DIQMTQSPSSLSASVGDRVTITCRASQSILTYLNWYQQKPGKAPKLLIYAATSRASGVPSRFSGSGSGTDFTLTISSLQPEDFATYYCQQSDNTPLTFGGGTKVEIK
3.32 OD	3.31 OD	3.52 OD	369_B03 (antibody, V domains shown, Group I) VH: EVQLLESGGGLVQPGGSLRLSCAASGFTFSSYGMHWVRQAPGKGLEWVAGINYNGGYTSYADSVKGRFTISRDNSKNTLYLQMNSLRAEDTAVYYCARAANWHDTALDYWGQGTLVTVSS VL: DIQMTQSPSSLSASVGDRVTITCRASQSILTYVNWYQQKPGKAPKLVIYAATSLASGVPSRFSGSGSGTDFTLTISSLQPEDFATYYCQQSYELPLTFGGGTKVEIK

Further lines, the binder ahead of its results:

Binder	optical density (human ACVR2A)	optical density (mouse ACVR2A)	optical density [1]
369_A12 (antibody, V domains shown, Group II) VH: EVQLLESGGGLVQPGGSLRLSCAASGFTFSSYSMHWVRQAPGKGLEWVASINYNSGYTGYADSVKGRFTISRDNSKNTLYLQMNSLRAEDTAVYYCARAATWHDTHLDYWGQGTLVTVSS VL: DIQMTQSPSSLSASVGDRVTITCRASQSILTYLNWYQQKPGKAPKLLIYAATSRHSGVPSRFSGSGSGTDFTLTISSLQPEDFATYYCQQSYDLPLTFGGGTKVEIK	3.17 OD	3.24 OD	3.72 OD
368_H03 (antibody, V domains shown, Group II) VH: EVQLLESGGGLVQPGGSLRLSCAASGFTFDDYSMHWVRQAPGKGLEWVASINYNGGYTGYADSVKGRFTISRDNSKNTLYLQMNSLRAEDTAVYYCARAATWHDTHLDYWGQGTLVTVSS VL: DIQMTQSPSSLSASVGDRVTITCRASQSILSYVNWYQQKPGKAPKLVIYAVTSRHSGVPSRFSGSGSGTDFTLTISSLQPEDFATYYCQQSYSNPLTFGGGTKVEIK	2.44 OD	2.73 OD	3.56 OD
369_A04 (antibody, V domains shown, Group II) VH: EVQLLESGGGLVQPGGSLRLSCAASGFTFDSYGMHWVRQAPGKGLEWVASINYNGGYKSYADSVKGRFTISRDNSKNTLYLQMNSLRAEDTAVYYCARAATWHDTHLDYWGQGTLVTVSS VL: DIQMTQSPSSLSASVGDRVTITCRASQSIVSYVNWYQQKPGKAPKLVIYAATSLASGVPSRFSGSGSGTDFTLTISSLQPEDFATYYCQQSYDLPLTFGGGTKVEIK	2.76 OD	2.86 OD	3.5 OD
369_B07 (antibody, V domains shown, Group II) VH: EVQLLESGGGLVQPGGSLRLSCAASGFTFDSYGMHWVRQAPGKGLEWVANINYNGGYKSYADSVKGRFTISRDNSKNTLYLQMNSLRAEDTAVYYCARAATWHDTHLDYWGQGTLVTVSS VL: DIQMTQSPSSLSASVGDRVTITCRASQSIVSYVNWYQQKPGKAPKLVIYAATSLASGVPSRFSGSGSGTDFTLTISSLQPEDFATYYCQQSYDLPLTFGGGTKVEIK	2.63 OD	2.9 OD	3.39 OD
